According to patent US20230235334A1:

Target: OmpR fused to the VP64 activation domain (E. coli)
Test: cell-based or functional assay

With “EnvZm2 (T247A) (from UniProt A0A4P7TSF2 1-450) (enzyme)” the fold-change of OmpR-driven mKate2 median fluorescence output (6xmCMV37 promoter, HEK-293FT cells), EnvZm2 (kinase) against EnvZm1 (D244A phosphatase, SEQ ID NO: 2), at the highest levels of OmpR was 40 fold, the fold-change of mKate2 median fluorescence output from the strongest OmpR promoter when the kinase (EnvZm2) or the phosphatase (EnvZm1) was present, HEK-293FT cells was 500 fold and the relative kinase strength against EnvZm1 phosphatase, from OmpR-driven mKate2 output in kinase titrations (Open-loop against Const. P), HEK-293FT cells was under 3 fold.
